Results on 19 sequences are retold here after the DeepSol protein solubility set.

This data set can be described thus: soluble on expression in E. coli; label from the status in PepcDB or PDB records.
Consider “MGGSHHHHHHGMASALAELSEEALLSVLPTIRVPKAGDRVHKDECAFSFDTPESEGGLYICMNTFLGFGKQYVERHFNKTGQRVYLHLRRTRRPKEEDPATGTGDPPRKKPTRLAIGVEGGFDLSEEKFELDEDVKIVILPDYLEIARDGLGGLPDIVRDRVTSAVEALLSADSASRKQEVQAWDGEVRQVSKHAFSLKQLDNPARIPPCGWKCSKCDMRENLWLNLTDGSILCGRRYFDGSGGNNHAVEHYRETGYPLAVKLGTITPDGADVYSYDEDDMVLDPSLAEHLSHFGIDMLKMQKTDKTMTELEIDMNQRIGEWELIQESGVPLKPLFGPGYTGIRNLGNSCYLNSVVQVLFSIPDFQRKYVDKLEKIFQNAPTDPTQDFSTQVAKLGHGLLSGEYSKPVPESGDGERVPEQKEVQDGIAPRMFKALIGKGHPEFSTNRQQDAQEFFLHLINMVERNCRSSENPNEVFRFLVEEKIKCLATEKVKYTQRVDYIMQLPVPMDAALNKEELLEYEEKKRQAEEEKMALPELVRAQVPFSSCLEAYGAPEQVDDFWSTALQAKSVAVKTTRFASFPDYLVIQIKKFTFGLDWVPKKLDVSIEMPEELDISQLRGTGLQPGEEELPDIAPPLVTPDEPKAPMLDESVIIQLVEMGFPMDACRKAVYYTGNSGAEAAMNWVMSHMDDPDFANPLILPGSSGPGSTSAAADPPPEDCVTTIVSMGFSRDQALKALRATNNSLERAVDWIFSHIDDLDAEAAMDISEGRSAADSISESVPVGPKVRDGPGKYQLFAFISHMGTSTMCGHYVC”, for which the “soluble on expression in E. coli” value was “not soluble”.

For “MGSDKIHHHHHHMSQAIPSSRVGVKINEWYKMIRQFSVPDAEILKAEVEQDIQQMEEDQDLLIYYSLMCFRHQLMLDYLEPGKTYGNRPTVTELLETIETPQKKLTGLLKYYSLFFRGMYEFDQKEYVEAIGYYREAEKELPFVSDDIEKAEFHFKVAEAYYHMKQTHVSMYHILQALDIYQNHPLYSIRTIQSLFVIAGNYDDFKHYDKALPHLEAALELAMDIQNDRFIAISLLNIANSYDRSGDDQMAVEHFQKAAKVSREKVPDLLPKVLFGLSWTLCKAGQTQKAFQFIEEGLDHITARSHKFYKELFLFLQAVYKETVDERKIHDLLSYFEKKNLHAYIEACARSAAAVFESSCHFEQAAAFYRKVLKAQEDILKGRVFICLLRKKVMMCLAVTLVFGSMSFPTLTNSGGFKESTDRNTTYIDHSPYKLSDQKKALS”, the “soluble on expression in E. coli” value is recorded as “not soluble”. With “AHHHHHHGSAVRLKTPLTWEDIRDLEIGDRVLLSGIVYTARDLAHRRFLEEGFPFNPEGAVIYHCGPLIKNGIVVSAGPTTSARMEKYLDFLFNRGVRGVIGKGGMNHEKFKGRAVYFSYPGGAGSLAREFIVKVRDVYWEDLGMTDAVWELEVRDMPLLVSIDSKGRSLYRKN”, the “soluble on expression in E. coli” value is on record as “soluble”. Then “MKLSVYVASAFSKDHKGGNKAGVVFIENSLTTTQKMAIAKQLGYAETAFISESEIADYKFEYFTPKEEVDLCGHATIGSFAILMHLNKLFRNRYTIETNSGVLTITIKDDSIFMEQNNPIFYDVVSPNEFIDCFDMKAIDNKYPIQIVSTGLKDILIPIKSETRLHALQPSFEKIKEISKYYNVVGMHLYTFNDDRIICRNFAPLYDINEEAATGTSNGALACYLHEQHNLQKEVYVFEQGYSLQSPSEILVTLATNSKNEIEKVYVGGKGYYCETKCLNVENME”, with “not soluble”; and “MGSDKIHHHHHHMRTIDTIFSSEVNVPLYHYTGIGSLLGMANCKSVWASSISYMNDSKEIVHACETVENVLRARIVFGQKDEEHRFLEQLIEWTKSCSKVAHTMFVFSLSEKPSLLSQWRSYTPHGKGVSLEFSPNKVNEIARFTGMRIAKCVYDDREQEEIISILVEKLLVNFRQELPAMDITDKPPSQCYYDFINQYTSDIYQVLAIIKHGAFEEECEWRLISPHIPKFGDPRLKFREGASMLVPYIELPLGDKPFFRKIILGPSQHQNLNMSGLSMFMSNQGISNELLNCQIPYREW”, with “not soluble”; and “MGTHSGHERNGESARGGALQRLERRLAAAWAEQDAYQIEQLAGMIYDRLVRSDPSAAATVLEQNAHRLAVAGKPAEAAELATRLIRHWRELEQRPFYLARLQQMVLEPLQALSGVEAARARTMVLEAVLAWKRASATVDTEEAAPAELAPVQDALVDAYVLCGEWARAQYQVVCRGGPAERDLAFIDEQLGPHLANDVERMLARTRLVLFYVLAGNLKAGRALVEEIQRKHPTAPMTNFVVILMQVLERARNVDSSKRRLLRNFCDDLKRVYHWAFSLDPELDAMLDDVLKAQGL”, with “not soluble”. In the case of “MGSDKIHHHHHHMKGISHRIAIPLILEVGNNKIYNIGQIIKKGNFKRVSLYFGEGIYELFGETIEKSIKSSNIEIEAVETVKNIDFDEIGTNAFKIPAEVDALIGIGGGKAIDAVKYMAFLRKLPFISVPTSTSNDGFSSPVASLLINGKRTSVPAKTPDGIVVDIDVIKGSPEKFIYSGIGDLVSNITALYDWKFEEENHKSIIDDFAVMISKKSVNSFVRTDFKSIKDEVFLKELVDSLTMNGIAMEIAGNSSPASGAEHLISHALDKFLPNPQLHGIQVGVATYIMSKVHKHREERIKKILSDTGFFNYVKGLNMKKSDFKRAISEAHLIKPARYTYLHVEKNCETAKEIVDTDEILRNILV”, the “soluble on expression in E. coli” value is recorded as “not soluble”. Then “MSLLTPEQIAAAQKANIESLFGLTTKAFEGVEKLIELNLQVVKSTLAESQENVQRALSVKDAQELLALQASLTQPIAEKVLAYGRHVYEIASATQAEFAKVAEAQYEEQNRKVQALVDNVAKNAPAGSETAVAALKSAINAANTTYETVQK”, with “not soluble”; and “SLIFILGIFYYLTQPLKSNSVVFIPQGSISQIITYLKQNKYQMSNIDKYILFFLGHPQSGWINIGTKDLNRAEFLHKLTIAKAALQTITLIPGETSVIFLEQAAKQLGLDKDILLKEFQAQAPYDEGVFLPETYKIPKGITENLLIQMLLNHAEISNKKTSEKIFGDYNPKKWHQYIIIASVIQKEAANDNEMPIVASVIYNRLKKGMKLQMDGTLNYGIYSHVKVTPQRIRQDNSFYNTYKFTGLPKEAVCNVSLAAIRAAIFPLKTDYLYFVRDKNTGVHIFSTNIDDHNKAINLQKGK”, with “soluble”; and “MVVPLKRIDKIRWEIPKFDKRMRVPGRVYADEVLLEKMKNDRTLEQATNVAMLPGIYKYSIVMPDGHQGYGFPIGGVAAFDVKEGVISPGGIGYDINCGVRLIRTNLTEKEVRPRIKQLVDTLFKNVPSGVGSQGRIKLHWTQIDDVLVDGAKWAVDNGYGWERDLERLEEGGRMEGADPEAVSQRAKQRGAPQLGSLGSGNHFLEVQVVDKIFDPEVAKAYGLFEGQVVVMVHTGSRGLGHQVASDYLRIMERAIRKYRIPWPDRELVSVPFQSEEGQRYFSAMKAAANFAWANRQMITHWVRESFQEVFKQDPEGDLGMDIVYDVAHNIGKVEEHEVDGKRVKVIVHRKGATRAFPPGHEAVPRLYRDVGQPVLIPGSMGTASYILAGTEGAMKETFGSTCHGAGRVLSRKAATRQYRGDRIRQELLNRGIYVRAASMRVVAEEAPGAYKNVDNVVKVVSEAGIAKLVARMRPIGVAKG”, with “soluble”. With “MQWRRCKVITRDFLMNADCKTAFGAIEESLLWSAEQRAASLAATLACRPDEGPVWIFGYGSLMWNPALEFTESCTGTLVGWHRAFCLRLTAGRGTAHQPGRMLALKEGGRTTGVAYRLPEETLEQELTLLWKREMITGCYLPTWCQLDLDDGRTVNAIVFIMDPRHPEYESDTRAQVIAPLIAAASGPLGTNAQYLFSLEQELIKLGMQDDGLNDLLVSVKKLLAENYPDGVLRPGFALEHHHHHH”, the “soluble on expression in E. coli” value was “not soluble”. Then “MGSDKIHHHHHHMFSGIAHCADCGSKLYYCTTRYFETRHDHFRCSASQKAVDPCTSHFIRAVVLEEMVLAHMRYVIGFVQRYEDSFRVSIEAERSTEIQKELSAKRKQIAQSQKRVDDLDVLFRKVYEDNASGKLTDERFMQLSRGYDLEQKTLRQMITMLEKEIDQQEQKTTQVEDFIAKCKRYSSLETLTPAILNDLVIKVFVEAPDKSTGKRRQGIHISYNLVGILPPLERFQPVVVERPNKEKAETA”, with “not soluble”; and “SKMTYADGTPIANIKSDLIRTRINGDQMSPLLKKAIISTEDEYFEEHHGVVPKALVRALISDATGIGGSSGGSTLTQQLVKQQILTDETTFKRKANEILLALRIEKYFSKDEIVTTYLNVSPFGRNNKGENIAGVEEAAKGLFGKSAKDLNLPQAAFIAGLPQSPIVYTPYTNT”, with “not soluble”; and “MAFLDNPTIILAHIRQSHVTSDDTGMCEMVLIDHDVDLEKIHPPSMPGDSGSEIQGSNGETQGYVYAQSVDITSSWDFGIRRRSNTAQRLERLRKERQNQIKCKNIQWKERNSKQSAQELKSLFEKKSLKEKPPISGKQSILSVRLEQCPLQLNNPFNEYSKFDGKGHVGTTATKKIDVYLPLHSSQDRLLPMTVVTMASARVQDLIGLICWQYTSEGREPKLNDNVSAYCLHIAEDDGEVDTDFPPLDSNEPIHKFGFSTLALVEKYSSPGLTSKESLFVRINAAHGFSLIQVDNTKVTMKEILLKAVKRRKGSQKVSGSRADGVFEEDSQIDIATVQDMLSSHHYKSFKVSMIHRLRFTTDVQLGISGDKVEIDPVTNQKASTKFWIKQKPISIDSDLLCACDLAEEKSPSHAIFKLTYLSNHDYKHLYFESDAATVNEIVLKVNYILESRASTARADYFAQKQRKLNRRTSFSFQKEKKSGQQ”, with “soluble”. For the sequence “MVGTFLGTGASSGVPMLNCSCKVCTSSYSKNKRLRSSFFLESSSGIKLLIDTGPDIRQQLLREKIDRLDLVLYTHEHYDHIMGFDDIKFYTRCAPLNIYARDTAMAHIRNAFPYNFTSKPSLSGKADIIANVIRDFEPFFFKSLKIVPIPLIHGDIISLGYRVGNLAYLTDVKFIPEASYDYLKNLDLLIIDAMRIKPHPAHLNFSEAFCVIKKINPKISYFTHIAHDIMHEEFDYLEKDNIYLAYDGLKIYILEHHHHHH”, the “soluble on expression in E. coli” value is reported as “not soluble”. Then “MGSDKIHHHHHHMRVLFVAPNYYPHIGGVERHVREVSLELQKDGHSITILVPKHDSSYGDFEREGNIEVVRLNKPQTKLFTGLERVLQVAGVSGRFLKADIVNFHDVATMWRYGLWIYPILRVLGKKVYITFHGWEGHFPPKDKIVARRKLAARLADGTMCVGHFIEKWYGTRADVVTYGGVHRSSLPEAHENSVVFVGRLAKDSGIDSYLRAWEWIVRDHPELRLVICGDGAMKKELEDFVCHTGLRNVEFLGLVENPLPYVTDAKVVFTSGYLGILEAFSRKKPVVAVYDNELKKDYLEMMPDSRRLMWIARDSKEVARCVDEALLDREKTERAYRYSLENSWTKVKEDYYRLWNVDGEHGESHGGRGR”, with “not soluble”; and “GSHMAQQNILSVHILNQQTGKPAADVTVTLEKKADNGWLQLNTAKTDKDGRIKALWPEQTATTGDYRVVFKTGDYFKKQNLESFFPEIPVEFHINKVNEHYHVPLLLSQYGYSTYRGS”, with “soluble”. Turning to “MGSDKIHHHHHHMLAYGYQKFGGPTVFEELPQSQLIPTDNQLLIKTLAVNLTEEDRLERLGTIQSVALPHIPGHDVIGKIIQVGAAVTDLDVGTVVAARTNHTYADQVCLDSDLAVTMPTNLDPVTAVSLVTPGIVAYKTVRYFADIQADQTVIVKGAGSPVGLLIIQLAKRLGAHVIAIASDRYANLIATLGVDQFVDYQHQNPVHVLADRGDVVINVAIDGVGGKDDLAMAKFDATIASFARHLPATSKSIRFQAIQPTEVISDQAALQLLFKLLDTGQLTTTINEQLPFNLTGFIQGHQRLDEPHVGQVVVAR”, the “soluble on expression in E. coli” value was “not soluble”. On to “MATFYEVIVRVPFDVEEHLPGISDSFVDWVTGQIWELPPESDLNLTLVEQPQLTVADRIRRVFLYEWNKFSKQESKFFVQFEKGSEYFHLHTLVETSGISSMVLGRYVSQIRAQLVKVVFQGIEPQINDWVAITKVKKGGANKVVDSGYIPAYLLPKVQPELQWAWTNLDEYKLAALNLEERKRLVAQFLAESSQRS”, for which the “soluble on expression in E. coli” value is given as “soluble”.
